± gives the standard deviation of the averaged measurements.

For the series, the system named is Saccharomyces cerevisiae. Briefly: protein stability index of tFT-peptide fusion (C-terminal peptide) (PSI (0-1 scale)); higher = more stable (slower turnover). The settings on record: temperature: 30 C. How it is done:
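MPS profiling in S. cerevisiae of the yeast C-terminome library: the last 12 aa of each annotated ORF are fused to the C-terminus of a sfGFP-mCherry timer, after a GGGS linker. Cells are FACS-sorted into 8 mCherry/sfGFP bins and deep-sequenced. PSI runs from 0 (unstable) to 1 (stable); wild type and das1Δ backgrounds, two technical replicates each.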

Setting [1] is: genetic background: das1 deletion.

Consider LLYLYDNDHTST [GPI19 C-terminal 12 aa], for which the protein stability index was 0.72 ± 0.058 under setting [1] and 0.6907 ± 0.0034 (genetic background: wild type).

Take LMAKRFQTGSLK [RTS3 C-terminal 12 aa]: the protein stability index is 0.7028 ± 0.00076 under setting [1] and 0.716 ± 0.043 (genetic background: wild type).

LMFSKLGRYLFN [NSG1 C-terminal 12 aa] gave a protein stability index under setting [1] of 0.6857 ± 0.0016 and a protein stability index (genetic background: wild type) of 0.655 ± 0.021.

Regarding LMLGVAYYLLNE [CYB5 C-terminal 12 aa], the protein stability index reads like this: under setting [1], 0.624 ± 0.044; (genetic background: wild type) 0.649 ± 0.048.

For LMVENFRKEYII [PTI1 C-terminal 12 aa], the protein stability index under setting [1] is 0.7001 ± 0.002 and the protein stability index (genetic background: wild type) was 0.547 ± 0.031.

Regarding LMYIYQAFTTQD [GDT1 C-terminal 12 aa], the protein stability index reads like this: under setting [1], 0.684 ± 0.011; (genetic background: wild type) 0.663 ± 0.036.

Consider LNAFQHPIVEFQ [YEL028W C-terminal 12 aa], for which the protein stability index is, setting by setting: under setting [1], 0.755 ± 0.013; (genetic background: wild type) 0.69 ± 0.022.

Take LNDIGDPTKTVQ [YPL025C C-terminal 12 aa]: the protein stability index reads like this: under setting [1], 0.689 ± 0.0087; (genetic background: wild type) 0.705 ± 0.0072.

On to LNEYSKDPPGNN [RAD18 C-terminal 12 aa], for which the protein stability index amounted to 0.704 ± 0.018 under setting [1] and 0.707 ± 0.021 (genetic background: wild type).

In turn, LNNFKFKTNSKQ [XBP1 C-terminal 12 aa] registered a protein stability index under setting [1] of 0.713 ± 0.027 and a protein stability index (genetic background: wild type) of 0.679 ± 0.022.

In the case of LNNTAASTGPGR [YKE2 C-terminal 12 aa], the protein stability index reads like this: under setting [1], 0.684 ± 0.011; (genetic background: wild type) 0.655 ± 0.0052.

For LNRKEESDSFVA [CHS3 C-terminal 12 aa], the protein stability index turned out to be 0.6769 ± 0.0027 under setting [1] and 0.679 ± 0.017 (genetic background: wild type).

With LNTSNECCTSDD [BIL2 C-terminal 12 aa], the protein stability index by setting is: under setting [1], 0.692 ± 0.023; (genetic background: wild type) 0.669 ± 0.016.

“LNTYVILFYTVY [YOL166W-A C-terminal 12 aa]” returned a protein stability index under setting [1] of 0.273 ± 0.046 and a protein stability index (genetic background: wild type) of 0.263 ± 0.0054.

In the case of “LPHFSHLHVHHD [YHR056W-A C-terminal 12 aa]”, the protein stability index reads like this: under setting [1], 0.7294 ± 0.0032; (genetic background: wild type) 0.719 ± 0.032.

As to LPPGLNSKKNIK [EAP1 C-terminal 12 aa], the protein stability index runs as follows: under setting [1], 0.69532 ± 0.00062; (genetic background: wild type) 0.658 ± 0.01.

Regarding LPQRSIPCAIYP [YCR108C C-terminal 12 aa], the protein stability index by setting is: under setting [1], 0.687 ± 0.012; (genetic background: wild type) 0.7045 ± 0.0036.

For LSAGFGIGEFML [YGR079W C-terminal 12 aa], the protein stability index reads like this: under setting [1], 0.72 ± 0.023; (genetic background: wild type) 0.692 ± 0.036.

Take LSAIVFLGTSSH [AVT5 C-terminal 12 aa]: the protein stability index was determined as 0.7155 ± 0.0055 under setting [1] and 0.704 ± 0.021 (genetic background: wild type).

With LSDKNPEFKYMY [TNA1 C-terminal 12 aa], the protein stability index amounted to 0.686 ± 0.0071 under setting [1] and 0.706 ± 0.0095 (genetic background: wild type).

Take LSEASKLASKPL [COX15 C-terminal 12 aa]: the protein stability index came out at 0.701 ± 0.0094 under setting [1] and 0.704 ± 0.039 (genetic background: wild type).

As to LSLRSLQIMGRN [DSS4 C-terminal 12 aa], the protein stability index reads like this: under setting [1], 0.6993 ± 0.00084; (genetic background: wild type) 0.726 ± 0.024.

For the sequence LSSKKQTVMDKE [POL5 C-terminal 12 aa], the protein stability index by setting is: under setting [1], 0.6463 ± 0.0045; (genetic background: wild type) 0.749 ± 0.051.

Regarding LSTKNIDDGMIS [COG7 C-terminal 12 aa], the protein stability index came to 0.706 ± 0.025 under setting [1] and 0.679 ± 0.052 (genetic background: wild type).

In the case of LVEILDCEIRTL [MIC60 C-terminal 12 aa], the protein stability index amounted to 0.6827 ± 0.0058 under setting [1] and 0.6707 ± 0.0035 (genetic background: wild type).

In the case of LVFALLTCFEDG [YDR209C C-terminal 12 aa], the protein stability index by setting is: under setting [1], 0.481 ± 0.0089; (genetic background: wild type) 0.505 ± 0.014.

Take LVGGGIKKSGKK [TMA7 C-terminal 12 aa]: the protein stability index under setting [1] was 0.67 ± 0.016 and the protein stability index (genetic background: wild type) was found to be 0.736 ± 0.011.

With LVHFLGLILNNF [YNL171C C-terminal 12 aa], the protein stability index is 0.68 ± 0.018 under setting [1] and 0.624 ± 0.014 (genetic background: wild type).

In turn, LVHIKMENGIVS [IZH2 C-terminal 12 aa] registered a protein stability index under setting [1] of 0.65319 ± 0.00027 and a protein stability index (genetic background: wild type) of 0.693 ± 0.019.

On to LYGPSKTRKFFD [VMA4 C-terminal 12 aa], for which the protein stability index amounted to 0.724 ± 0.027 under setting [1] and 0.692 ± 0.011 (genetic background: wild type).

As for LYGQRFLATGFQ [AIM19 C-terminal 12 aa], the protein stability index was determined as 0.714 ± 0.0097 under setting [1] and 0.705 ± 0.024 (genetic background: wild type).

Consider LYLLLARVFEIW [SNF11 C-terminal 12 aa], for which the protein stability index by setting is: under setting [1], 0.567 ± 0.059; (genetic background: wild type) 0.5614 ± 0.0025.

Turning to LYQCRMPCLYSI [YGL193C C-terminal 12 aa], the protein stability index reads like this: under setting [1], 0.659 ± 0.026; (genetic background: wild type) 0.586 ± 0.014.

As for LYWDPSWITRQL [SNF8 C-terminal 12 aa], the protein stability index was 0.716 ± 0.019 under setting [1] and 0.621 ± 0.043 (genetic background: wild type).

The values above are taken from the supplement of paper PMC10724198.
